The values that follow are results of earlier work, collected in publication PMC10941800.

Conditions in all cases: cited from earlier work
The target of data set [1] is measles virus hemagglutinin (Measles morbillivirus) (UniProt P08362).
The target is the same in data set [2]. This is another data set of the same source.
For data set [3] the target is unchanged. The source holds these as a separate data set.

pKd: −log10 of the molar value. Where two headings read alike, the source gives them in different places.

Chain of UniProt P08362 (P08362 59-617): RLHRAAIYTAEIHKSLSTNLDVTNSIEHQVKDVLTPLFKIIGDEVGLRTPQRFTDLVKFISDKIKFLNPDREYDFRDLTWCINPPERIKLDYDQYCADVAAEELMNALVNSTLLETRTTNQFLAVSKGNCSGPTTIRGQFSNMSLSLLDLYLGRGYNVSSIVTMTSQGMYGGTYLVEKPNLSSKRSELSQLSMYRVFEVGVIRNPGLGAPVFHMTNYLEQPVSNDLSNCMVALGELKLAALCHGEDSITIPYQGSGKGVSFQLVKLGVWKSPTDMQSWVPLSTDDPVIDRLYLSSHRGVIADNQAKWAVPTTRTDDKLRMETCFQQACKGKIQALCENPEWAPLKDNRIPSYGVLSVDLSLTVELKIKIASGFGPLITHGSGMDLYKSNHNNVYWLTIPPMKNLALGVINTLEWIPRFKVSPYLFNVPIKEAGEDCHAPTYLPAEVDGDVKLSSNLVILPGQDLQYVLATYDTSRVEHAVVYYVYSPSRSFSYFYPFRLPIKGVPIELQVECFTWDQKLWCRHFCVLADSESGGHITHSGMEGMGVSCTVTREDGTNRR

In the case of CD46 (from UniProt P15529), the pKd in data set [1] was 6.70.
Turning to Nectin-4 (from UniProt Q96NY8), the pKd in data set [2] is 6.17.
For SLAM (from UniProt Q13291), the pKd in data set [3] was 6.77.
